Assay [1] has as its target T1, CH3 T366S:L368A:Y407V cavity mutant (human, UniProt P01857-1 224-330 = IgG part, T366S; L368A; Y407V).
T1 construct: domain: CH3; Isolated CH3 domain secreted from E. coli; Positions follow Eu numbering; also called phage-selected cavity mutant
The experiment in a line: calorimetry of a 1:1 mixture of purified CH3 domains.

In assay [2] the target is T2, CH3 Y407A cavity mutant (human, UniProt P01857-1 224-330 = IgG part, Y407A).
T2 construct: domain: CH3; Isolated CH3 domain secreted from E. coli; Positions follow Eu numbering; also called designed cavity mutant
Kind of assay: calorimetry of a mixture of purified CH3 domains.

B1: CH3 T366W protuberance mutant (other, human, UniProt P01857-1 224-330, looked up, name in EU numbering)
chain: GQPREPQVYTLPPSRDELTKNQVSLWCLVKGFYPSDIAVEWESNGQPENNYKTTPPVLDSDGSFFLYSKLTVDKSRWQQGNVFSCSVMHEALHNHYTQKSLSLSPGK
notes: domain: CH3; Isolated CH3 domain secreted from E. coli (plasmid pAK19); Positions follow Eu numbering, not the UniProt entry
Turning to B1, the binding result in assay [1] and in assay [2] was “binds” each time.

(Values after patent US20070184523A1 (Genentech, published 2007).)
